# Experimental data as given in patent US20100240056.
# Tested on: EcR-B/VP16-USP heterodimer (Leptinotarsa decemlineata)
# Test: EMSA
# Settings: reference band for densitometry; little change with agonist
substance,measurement,value
hsp27 EcRE probe,binding signal,1
